In article PMC11574045, “A cofactor-induced repressive type of transcription factor condensation can be induced by synthetic peptides to suppress tumorigenesis” (The EMBO Journal, 2024):

B1: NR2B3/RXRG (protein, UniProt P28705 1-463, looked up)
Retinoic acid receptor …: MYGNYSHFMKFPTGFGGSPGHTGSTSMSPSVALPTGKPMDSHPSYTDTPVSAPRTLSAVGTPLNALGSPYRVITSAMGPPSGALAAPPGINLVAPPSSQLNVVNSVSSSEDIKPLPGLPGIGNMNYPSTSPGSLVKHICAICGDRSSGKHYGVYSCEGCKGFFKRTIRKDLIYTCRDNKDCLIDKRQRNRCQYCRYQKCLVMGMKREAVQEERQRSRERAESEAECASSSHEDMPVERILEAELAVEPKTESYGDMNVENSTNDPVTNICHAADKQLFTLVEWAKRIPHFSDLTLEDQVILLRAGWNELLIASFSHRSVSVQDGILLATGLHVHRSSAHSAGVGSIFDRVLTELVSKMKDMQMDKSELGCLRAIVLFNPDAKGLSNPSEVETLREKVYATLEAYTKQKYPEQPGRFAKLLLRLPALRSIGLKCLEHLFFFKLIGDTPIDSFLMEMLETPLQIT
B2: NR0B2/SHP (protein, UniProt Q15466 1-257, looked up)
Nuclear receptor subfamily 0 …: MSTSQPGACPCQGAASRPAILYALLSSSLKAVPRPRSRCLCRQHRPVQLCAPHRTCREALDVLAKTVAFLRNLPSFWQLPPQDQRRLLQGCWGPLFLLGLAQDAVTFEVAEAPVPSILKKILLEEPSSSGGSGQLPDRPQPSLAAVQWLQCCLESFWSLELSPKEYACLKGTILFNPDVPGLQAASHIGHLQQEAHWVLCEVLEPWCPAAQGRLTRVLLTASTLKSIPTSLLGDLFFRPIIGDVDIAGLLGDMLLLR
B3: NR1I3/CAR1 (protein, UniProt Q14994 1-352, looked up)
Nuclear receptor subfamily 1 …: MASREDELRNCVVCGDQATGYHFNALTCEGCKGFFRRTVSKSIGPTCPFAGSCEVSKTQRRHCPACRLQKCLDAGMRKDMILSAEALALRRAKQAQRRAQQTPVQLSKEQEELIRTLLGAHTRHMGTMFEQFVQFRPPAHLFIHHQPLPTLAPVLPLVTHFADINTFMVLQVIKFTKDLPVFRSLPIEDQISLLKGAAVEICHIVLNTTFCLQTQNFLCGPLRYTIEDGARVSPTVGFQVEFLELLFHFHGTLRKLQLQEPEYVLLAAMALFSPDRPGVTQRDEIDQLQEEMALTLQSYIKGQQRRPRDRFLYAKLLGLLAELRSINEAYGYQIQHIQGLSAMMPLLQEICS
B4: NR1F3/RORC (protein, UniProt P51449 1-518, looked up)
Nuclear receptor ROR-gamma: MDRAPQRQHRASRELLAAKKTHTSQIEVIPCKICGDKSSGIHYGVITCEGCKGFFRRSQRCNAAYSCTRQQNCPIDRTSRNRCQHCRLQKCLALGMSRDAVKFGRMSKKQRDSLHAEVQKQLQQRQQQQQEPVVKTPPAGAQGADTLTYTLGLPDGQLPLGSSPDLPEASACPPGLLKASGSGPSYSNNLAKAGLNGASCHLEYSPERGKAEGRESFYSTGSQLTPDRCGLRFEEHRHPGLGELGQGPDSYGSPSFRSTPEAPYASLTEIEHLVQSVCKSYRETCQLRLEDLLRQRSNIFSREEVTGYQRKSMWEMWERCAHHLTEAIQYVVEFAKRLSGFMELCQNDQIVLLKAGAMEVVLVRMCRAYNADNRTVFFEGKYGGMELFRALGCSELISSIFDFSHSLSALHFSEDEIALYTALVLINAHRPGLQEKRKVEQLQYNLELAFHHHLCKTHRQSILAKLPPKGKLRSLCSQHVERLQIFQHLHPIVVQAAFPPLYKELFSTETESPVGLSK
B5: NR1H2/LXRB (protein, UniProt P55055 1-460, looked up)
Oxysterols receptor LXR-beta: MSSPTTSSLDTPLPGNGPPQPGAPSSSPTVKEEGPEPWPGGPDPDVPGTDEASSACSTDWVIPDPEEEPERKRKKGPAPKMLGHELCRVCGDKASGFHYNVLSCEGCKGFFRRSVVRGGARRYACRGGGTCQMDAFMRRKCQQCRLRKCKEAGMREQCVLSEEQIRKKKIRKQQQESQSQSQSPVGPQGSSSSASGPGASPGGSEAGSQGSGEGEGVQLTAAQELMIQQLVAAQLQCNKRSFSDQPKVTPWPLGADPQSRDARQQRFAHFTELAIISVQEIVDFAKQVPGFLQLGREDQIALLKASTIEIMLLETARRYNHETECITFLKDFTYSKDDFHRAGLQVEFINPIFEFSRAMRRLGLDDAEYALLIAINIFSADRPNVQEPGRVEALQQPYVEALLSYTRIKRPQDQLRFPRMLMKLVSLRTLSSVHSEQVFALRLQDKKLPPLLSEIWDVHE

Test system: HEK293FT cells transfected with TF library
Assay: Screening of TF condensates based on fluorescent puncta
Assay type: cell-based
Settings: Figure 1B numerical data; TF library screen, one value per transcriptional factor
How it was run: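 HEK293FT, PEI transfection of TF library, 60 h; ±glucose 12 h; 4% PFA fix, 0.05% Triton X-100 permeabilization, 5% BSA block; anti-Flag/anti-GAL4 overnight at 4 °C, Alexa 488 secondary 1 h; high-content imaging, 50 fields/well.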

Molecule	Z score of condensed fraction
B1	-0.7251
B2	-0.8477
B3	-0.6844
B4	0.1658
B5	0.2806
